Reference: the supplement of paper PMC7877785
± gives the uncertainty stated by the source.

Assay: self-splicing fitness, log relative to wild type (ln ratio); higher = more splicing; Tetrahymena group I intron in knt gene, E. coli kanamycin selection, DiMSum; sequences stand for … in CUCUCU…GGAGGGAAAAGUUAUCAGGCAUGCACCUGGUAGCUAGUCUUUAAACCAAUAGAUUGCAUCGGUUUAAAAGGCAAGACCGUCAAAUUGCGGGAAAGGGGUCAACAGCCGUUCAGUACCAAGUCUCAGGGGAAACUUUGAGAUGGCCUUGCAAAGGGUAUGGUAAUAAGCUGACGGACAUGGUCCUAACCACGCAGCCAAGUCCUAAGUCAACAGAUCUUCUGUUGAUAUGGAUGCAGUUCACAGACUAAAUGUCGGUCGGGGAAGAUGUAUUCUUCUCAUAAGAUAUAGUCGGACCUCUCCUUAAUGGGAGCUAGCGGAUGAAGUGAUGCAACACUGGAGCCGCUGGGAACUAAUUUGUAUGCGAAAGUAUAUUGAUUAGUUUUGGAGUACUCGUGGUCG
Procedure, shortened: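 Six replicate transformations of E. coli BL21(DE3) with a pET-22b(+) library were grown overnight at 37°C or 30°C. The library randomised all eight P1ex-region intron nucleotides, the intron lying in the knt kanamycin-resistance gene, and plates were LB agar with or without 25 μg/mL kanamycin plus 100 μg/mL carbenicillin, 50 μM IPTG and 0.2% rhamnose. Pooled colonies were amplicon-sequenced on an Illumina HiSeq 2500, and fitness is the DiMSum error-weighted combination of wild-type-normalised replicate fold changes, kanamycin versus none.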

Row | Sequence | self-splicing fitness (ln) (30 °C) | self-splicing fitness (ln) (37 °C)
1 | GCUAAGCAAUAUUACGUUAU | -1.7 ± 0.072 | -1.48 ± 0.12
2 | GCCUAGCAAUAUUACGACGA | -1.46 ± 0.14 | -0.629 ± 0.13
3 | ACUCAGCAAUAUUACGCGCG | -1.21 ± 0.12 | -0.47 ± 0.11
4 | ACGCAGCAAUAUUACGUGAC | -3.45 ± 0.25 | -2.3 ± 0.21
5 | UGACAGCAAUAUUACGGUCA | -2.97 ± 0.28 | -0.408 ± 0.17
6 | UAUCAGCAAUAUUACGUCAA | -0.73 ± 0.092 | -0.445 ± 0.11
7 | UGCUAGCAAUAUUACGUCUU | -1.85 ± 0.093 | -0.906 ± 0.088
8 | ACUCAGCAAUAUUACGUACC | -1.39 ± 0.09 | 0.482 ± 0.13
9 | AGGCAGCAAUAUUACGCCGG | -1.09 ± 0.15 | -1.66 ± 0.17
10 | UCGAAGCAAUAUUACGUCAU | -2.62 ± 0.15 | -2.58 ± 0.21
11 | UUGUAGCAAUAUUACGUGAG | -0.904 ± 0.076 | -0.739 ± 0.11
12 | GGGAAGCAAUAUUACGAUAA | -1.61 ± 0.11 | -0.785 ± 0.15
13 | GUGUAGCAAUAUUACGCGUA | -1.82 ± 0.26 | -0.729 ± 0.17
14 | UAGGAGCAAUAUUACGGUCU | -1.36 ± 0.37 | –
15 | GUGCAGCAAUAUUACGUGGA | -3.24 ± 0.28 | -2.24 ± 0.19
16 | AAGUAGCAAUAUUACGGUAC | -2.65 ± 0.18 | -1.75 ± 0.18
17 | UUCGAGCAAUAUUACGAUCG | -2.94 ± 0.32 | -1.53 ± 0.43
18 | CAGAAGCAAUAUUACGCAUU | -4.37 ± 0.27 | -2.92 ± 0.2
19 | GGAGAGCAAUAUUACGGUCG | -1.18 ± 0.25 | -1.56 ± 0.29
20 | AGGAAGCAAUAUUACGUGAC | -3.65 ± 0.22 | -2.45 ± 0.15
21 | AUGCAGCAAUAUUACGGCGU | -4.06 ± 0.24 | -1.76 ± 0.2
22 | GUUCAGCAAUAUUACGUUAA | -1.02 ± 0.11 | -0.264 ± 0.12
23 | GGGUAGCAAUAUUACGACCG | -1.03 ± 0.18 | -0.642 ± 0.33
24 | GUGGAGCAAUAUUACGAGGA | -3.96 ± 0.31 | -1.75 ± 0.19
25 | CACCAGCAAUAUUACGCAGG | -3.09 ± 0.1 | -1.64 ± 0.1
26 | AGCGAGCAAUAUUACGUGGC | -4.97 ± 0.31 | -2.46 ± 0.2

Row | Sequence | self-splicing fitness (ln) (30 °C) | self-splicing fitness (ln) (37 °C)
27 | CAAUAGCAAUAUUACGACAC | -3.61 ± 0.34 | -1.88 ± 0.21
28 | GCGCAGCAAUAUUACGGUGG | -1.74 ± 0.059 | -0.842 ± 0.08
29 | CUCUAGCAAUAUUACGCCCU | -3.28 ± 0.26 | -2.2 ± 0.19
30 | UUGUAGCAAUAUUACGAACA | -0.432 ± 0.16 | -0.256 ± 0.15
31 | CUCAAGCAAUAUUACGAUCA | -1.3 ± 0.3 | -1.09 ± 0.2
32 | CUACAGCAAUAUUACGCAUA | -3.32 ± 0.24 | -2.28 ± 0.2
33 | UCUAAGCAAUAUUACGCUGG | -2.53 ± 0.12 | -2.92 ± 0.24
34 | UCCAAGCAAUAUUACGUCGG | -1.11 ± 0.074 | -0.182 ± 0.091
35 | CAUCAGCAAUAUUACGAAUA | -1.48 ± 0.23 | -0.645 ± 0.17
36 | AAGUAGCAAUAUUACGGGUA | -1.49 ± 0.16 | -1.09 ± 0.17
37 | UGCUAGCAAUAUUACGCGAA | -2.97 ± 0.32 | -1.88 ± 0.21
38 | AAUGAGCAAUAUUACGCAGG | -2.85 ± 0.14 | -3.18 ± 0.29
39 | AGCAAGCAAUAUUACGGGAG | -3.68 ± 0.19 | -1.78 ± 0.13
40 | AUGAAGCAAUAUUACGUUUA | -0.538 ± 0.061 | -0.537 ± 0.079
41 | CACGAGCAAUAUUACGUAUC | -2.94 ± 0.38 | -2.81 ± 0.36
42 | AGCUAGCAAUAUUACGACUC | -2.01 ± 0.16 | -1.24 ± 0.15
43 | GCGCAGCAAUAUUACGCGGC | – | -3.69 ± 0.37
44 | GAGCAGCAAUAUUACGACUC | -2.56 ± 0.19 | 0.053 ± 0.17
45 | AGCGAGCAAUAUUACGGCCG | -2.6 ± 0.34 | -1.72 ± 0.26
46 | ACUUAGCAAUAUUACGAAAG | -2.69 ± 0.19 | -0.697 ± 0.17
47 | AUACAGCAAUAUUACGAGCA | -2.04 ± 0.24 | -1.91 ± 0.23
48 | GCCGAGCAAUAUUACGCCGU | -3.28 ± 0.29 | -1.75 ± 0.19
49 | GAGCAGCAAUAUUACGGAAC | -3.14 ± 0.23 | -2.13 ± 0.16
50 | UCGAAGCAAUAUUACGGUAG | -1.4 ± 0.1 | -1.61 ± 0.11
51 | GAUAAGCAAUAUUACGUGGA | -3.96 ± 0.38 | -2.55 ± 0.17
52 | CAUGAGCAAUAUUACGGAGA | -3.91 ± 0.35 | -2.58 ± 0.48

Row | Sequence | self-splicing fitness (ln) (30 °C) | self-splicing fitness (ln) (37 °C)
53 | GGCUAGCAAUAUUACGUUCC | -1.62 ± 0.11 | -0.39 ± 0.11
54 | AAGCAGCAAUAUUACGAUUU | 0.17 ± 0.061 | 0.619 ± 0.079
55 | GCGUAGCAAUAUUACGAUGU | -2.18 ± 0.068 | -1.15 ± 0.096
56 | AUCCAGCAAUAUUACGUGUU | -2.74 ± 0.094 | -2.45 ± 0.12
57 | GACAAGCAAUAUUACGUACU | -1.16 ± 0.059 | -0.397 ± 0.079
58 | GCAAAGCAAUAUUACGUUUA | -2.29 ± 0.12 | -1.75 ± 0.13
59 | GUGUAGCAAUAUUACGAUGC | -1.85 ± 0.16 | -0.552 ± 0.18
60 | CGGGAGCAAUAUUACGAGGU | -4.39 ± 0.39 | -2.18 ± 0.31
61 | UGCCAGCAAUAUUACGGGCG | -3.1 ± 0.16 | -2.73 ± 0.21
62 | CGUGAGCAAUAUUACGUUCG | -2.61 ± 0.15 | -3.09 ± 0.28
63 | AUUCAGCAAUAUUACGUCGA | -0.991 ± 0.085 | -0.503 ± 0.097
64 | GUCUAGCAAUAUUACGAUCG | -3.06 ± 0.17 | -1.09 ± 0.16
65 | CCUAAGCAAUAUUACGUCGC | -2.21 ± 0.16 | -1.85 ± 0.2
66 | GCCAAGCAAUAUUACGAAGA | -2.96 ± 0.21 | -1.39 ± 0.17
67 | UAUAAGCAAUAUUACGUGGA | -2.08 ± 0.19 | -1.71 ± 0.19
68 | UGACAGCAAUAUUACGGGAA | -1.33 ± 0.12 | -0.827 ± 0.081
69 | UCUUAGCAAUAUUACGAAAG | -2.07 ± 0.35 | -1.12 ± 0.34
70 | GGAAAGCAAUAUUACGAACU | -0.854 ± 0.1 | 0.214 ± 0.12
71 | UCGUAGCAAUAUUACGCGGC | – | -2.15 ± 0.46
72 | GCAUAGCAAUAUUACGCCCG | -1.24 ± 0.32 | -0.11 ± 0.32
73 | UACUAGCAAUAUUACGUGAC | -2.29 ± 0.13 | -1.93 ± 0.26
74 | AACUAGCAAUAUUACGCUUU | -2.44 ± 0.097 | -1.71 ± 0.12
75 | UCUUAGCAAUAUUACGGCGG | -0.64 ± 0.11 | -0.0592 ± 0.13
76 | ACCUAGCAAUAUUACGCUUG | -3.5 ± 0.16 | -2.04 ± 0.16
77 | ACCGAGCAAUAUUACGACAG | -2.88 ± 0.17 | -2.41 ± 0.39
